US20230057904A1 (Chugai, published 2023)
Changes are numbered by the printed parent chain.

B1: CS2961 (bispecific antibody, human IgG1, kappa, L234A L235A, N297A)
heavy 1: QVQLVESGGGVVQPGGSLRLSCAASGFTFSSYTMSWVREAPGQGLEWMGTISSGGGRTYYPDSVKGRFTISRDNSKNTLYLQMNSLRDEDTAVYYCARGDYRYDGFAYWGEGTLVTVSSASTKGPSVFPLAPSSKSTSGGTAALGCLVEDYFPEPVTVSWNSGALTSGVHTFPAVLESSGLYSLSSVVTVPSSSLGTQTYICNVNHKPSNTKVDERVEPKSCDKTHTCPPCPAPEAAGGPKVFLFPPKPKDTLMISRTPEVTCVVVDVSHEDPEVKFNWYVDGVEVHNAKTKPREEQYASTYRVVSVLTVLHQDWLNGKEYKCKVSNKGLPSSIEKTISKAKGQPREPQVYTLPPSREEMTKNQVSLTCLVKGFYPSDIAVEWESNGQPENNYKTTPPVLDSDGSFFLYSKLTVDKSRWQQGNVFSCSVMHEALHNHYTQESLSLSP
light 1: DIQMTQSPSSLSASVGDRVTITCRASYNIDSYLAWYQKKPGKAPELLIYYSTLLVDGVPDRFSGSRSGTDFTLTISSLQPEDFATYYCQHYYSIPYTFGQGTKVEIERTVAAPSVFIFPPSDKQLKSGTAKVVCLLNNFYPREAKVQWKVDNALQSGNSKESVTEQDSKDSTYSLSSTLTLSKADYEKHKVYACEVTHQGLSSPVTKSFNRGEC
heavy 2: QVQLVESGGGVVQPGGSLRLSCAASGFTFSNAWMHWVRKAPGKGLEWVAQIKDKSQNYATYVAESVKGRFTISRADSKNSIYLQMNSLKTEDTAVYYCRYVHYAAGYGVDIWGQGTTVTVSSASTKGPSVFPLAPSSKSTSGGTAALGCLVKDYFPEPVTVSWNSGALTSGVHTFPAVLKSSGLYSLSSVVTVPSSSLGTQTYICNVNHKPSNTKVDKRVEPKSCDKTHTCPPCPAPEAAGGPKVFLFPPKPKDTLMISRTPEVTCVVVDVSHEDPEVKFNWYVDGVEVHNAKTKPREEQYASTYRVVSVLTVLHQDWLNGKEYKCKVSNKGLPSSIEKTISKAKGQPREPQVYTLPPSRKEMTKNQVSLTCLVKGFYPSDIAVEWESNGQPENNYKTTPPVLDSDGSFFLYSKLTVDKSRWQQGNVFSCSVMHEALHNHYTQKSLSLSP
light 2: DIVMTQSPLSLPVTPGEPASISCRSSQPLVHSNRNTYLHWYQEKPGQAPRLLIYKVSNRFSGVPDRFSGSGSGTDFTLKISRVEAEDVGVYYCGQGTQVPYTFGQGTKLEIKRTVAAPSVFIFPPSDEQLKSGTAEVVCLLNNFYPREAKVQWKVDNALQSGNSEESVTEQDSKDSTYSLSSTLELSKADYEKHKVYACEVTHQGLSSPVTKSFNRGEC
notes: also called 65HQ39E-SG1212/54L0532Q38K-SK1021//TR01 arm with SG1213/SK1017
B2: KLH/TR01 (bispecific antibody, V domains shown)
VH 1: QVQLQQSGPQLVRPGASVKISCKASGYSFTSYWMHWVNQRPGQGLEWIGMIDPSYSETRLNQKFKDKATLTVDKSSSTAYMQLSSPTSEDSAVYYCALYGNYFDYWGQGTTLTVSS
VL 1: DIQMTQSSSSFSVSLGDRVTITCKASEDIYNRLAWYQQKPGNAPRLLISGATSLETGVPSRFSGSGSGKDYTLSITSLQTEDVATYYCQQYWSTPYTFGGGTKLEVK
VH 2: QVQLVESGGGVVQPGGSLRLSCAASGFTFSNAWMHWVRQAPGKGLEWVAQIKDKSQNYATYVAESVKGRFTISRADSKNSIYLQMNSLKTEDTAVYYCRYVHYAAGYGVDIWGQGTTVTVSS
VL 2: DIVMTQSPLSLPVTPGEPASISCRSSQPLVHSNRNTYLHWYQQKPGQAPRLLIYKVSNRFSGVPDRFSGSGSGTDFTLKISRVEAEDVGVYYCGQGTQVPYTFGQGTKLEIK
notes: made by Fab arm exchange; also called bispecific antibody of anti-keyhole limpet hemocyanin (KLH) antibody paired with the human CD3 antibody TR01; negative control

Legend:
human CLDN9 [1] = target: T1, human CLDN9 (human, UniProt O95484 1-217); experiment: flow cytometry on hCLDN9/BaF (Ba/F3 transfectant), Alexa Fluor 488 anti-human IgG; histogram against KLH/TR01
T1 construct: also called hCLDN9; hCLDN9/BaF
T1 sequence: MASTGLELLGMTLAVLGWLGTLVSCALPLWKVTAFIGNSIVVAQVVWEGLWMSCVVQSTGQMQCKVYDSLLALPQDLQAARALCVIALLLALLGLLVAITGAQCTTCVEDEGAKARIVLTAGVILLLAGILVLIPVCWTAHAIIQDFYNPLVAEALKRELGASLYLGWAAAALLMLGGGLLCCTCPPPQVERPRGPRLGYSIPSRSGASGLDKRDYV

human CLDN4 [2] = target: T2, human CLDN4 (human, UniProt O14493 1-209); experiment: flow cytometry on hCLDN4/BaF (Ba/F3 transfectant), Alexa Fluor 488 anti-human IgG; histogram against KLH/TR01
T2 construct: also called hCLDN4; hCLDN4/BaF
T2 sequence: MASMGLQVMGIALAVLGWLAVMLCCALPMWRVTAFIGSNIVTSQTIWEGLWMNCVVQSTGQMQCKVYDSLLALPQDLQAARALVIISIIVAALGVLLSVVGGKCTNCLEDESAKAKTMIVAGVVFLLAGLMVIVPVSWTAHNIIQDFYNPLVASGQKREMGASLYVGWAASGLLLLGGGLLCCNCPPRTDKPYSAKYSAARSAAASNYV

human CLDN3 [3] = target: T3, human CLDN3 (human, UniProt O15551 1-220); experiment: flow cytometry on hCLDN3/BaF (Ba/F3 transfectant), Alexa Fluor 488 anti-human IgG; histogram against KLH/TR01
T3 construct: also called hCLDN3; hCLDN3/BaF
T3 sequence: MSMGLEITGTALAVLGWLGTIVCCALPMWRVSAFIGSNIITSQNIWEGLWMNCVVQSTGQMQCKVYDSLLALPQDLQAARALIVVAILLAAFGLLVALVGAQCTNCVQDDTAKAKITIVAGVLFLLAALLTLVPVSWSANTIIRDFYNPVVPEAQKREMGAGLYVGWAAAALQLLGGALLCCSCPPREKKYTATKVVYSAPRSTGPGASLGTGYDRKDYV
Experimental: (§1) Amino acid sequence are highly conserved among CLDN3, CLDN4, CLDN6 and CLDN9. Thus we examined CLDN6 binding specificity by FACS analysis. hCLDN6/BaF, hCLDN3/BaF, hCLDN4/BaF, and hCLDN9/BaF were incubated with CS2201, CS2961, AH05/TR01 and 6PHU3/TR01 at 15 micro g/ml. KLH/TR01 generated in Example 2-3 was used as a staining control. Binding of each antibody was detected with Alexa Fluor 488-conjugated anti human IgG (Invitrogen). Dead cells were separated by eFlour 780 (Invitrogen) staining.

mouse CLDN4 = target: T4, mouse CLDN4 (mouse, UniProt O35054 1-210); experiment: flow cytometry, FreeStyle 293-F transfectants expressing mouse CLDN4, anti-human IgG Alexa Fluor 647; MFI
T4 construct: also called mCLDN4; mCLDN4/FS293
T4 sequence: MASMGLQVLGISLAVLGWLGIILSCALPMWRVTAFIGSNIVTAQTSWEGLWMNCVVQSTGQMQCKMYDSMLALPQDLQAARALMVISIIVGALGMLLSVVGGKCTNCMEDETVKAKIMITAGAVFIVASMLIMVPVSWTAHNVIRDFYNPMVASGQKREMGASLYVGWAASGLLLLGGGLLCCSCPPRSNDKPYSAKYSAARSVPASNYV
Experimental: (§2) Antibodies were mixed with FreeStyle™ 293-F cells transiently expressed human and mouse CLDN3, 4, 6, and 9 at final concentration of 10 micro g/mL. After 1 hour of incubation, cells were washed by 0.1% BSA containing D-PBS(−), and incubated in 5 micro g/mL of either Goat anti-Human IgG (H+L) Cross-Adsorbed Secondary Antibody, Alexa Fluor 647 (Invitrogen, A21445) or Goat anti-Mouse IgG (H+L) Highly Cross-Adsorbed Secondary Antibody, Alexa Fluor 647 (Invitrogen, A21236), for 1 hour. Cells were then washed with 0.1% BSA containing D-PBS(−), resuspended in 5 micro L of 0.1% BSA containing D-PBS(−), and analyzed by flow cytometer (iQue Screener, intellicyte).

human CLDN4 [4] = target: T2, human CLDN4; experiment: flow cytometry on hCLDN4/BaF (Ba/F3 transfectant), Alexa Fluor 488 anti-human IgG
Experimental: as §1

mouse CLDN6 = target: T5, mouse CLDN6 (mouse, UniProt Q9Z262 1-219); experiment: flow cytometry, FreeStyle 293-F transfectants expressing mouse CLDN6, anti-human IgG Alexa Fluor 647; MFI
T5 construct: also called mCLDN6; mCLDN6/FS293
T5 chain: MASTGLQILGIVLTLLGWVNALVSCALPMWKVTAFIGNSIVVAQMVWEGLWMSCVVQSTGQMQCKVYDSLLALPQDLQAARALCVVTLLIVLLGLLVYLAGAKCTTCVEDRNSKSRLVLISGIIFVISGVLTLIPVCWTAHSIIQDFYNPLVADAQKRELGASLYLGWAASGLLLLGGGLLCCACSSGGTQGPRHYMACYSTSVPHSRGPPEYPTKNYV
Experimental: as §2

mouse CLDN3 = target: T6, mouse CLDN3 (mouse, UniProt Q9Z0G9 1-219); experiment: flow cytometry, FreeStyle 293-F transfectants expressing mouse CLDN3, anti-human IgG Alexa Fluor 647; MFI
T6 construct: also called mCLDN3; mCLDN3/FS293
T6 sequence: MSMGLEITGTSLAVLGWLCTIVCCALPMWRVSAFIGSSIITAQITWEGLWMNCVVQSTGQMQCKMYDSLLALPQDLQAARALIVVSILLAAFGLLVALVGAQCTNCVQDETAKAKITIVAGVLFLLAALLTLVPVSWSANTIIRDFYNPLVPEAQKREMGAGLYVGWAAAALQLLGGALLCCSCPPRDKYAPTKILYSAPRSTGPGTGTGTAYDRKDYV
Experimental: as §2

human CLDN3 [5] = target: T3, human CLDN3; experiment: flow cytometry on hCLDN3/BaF (Ba/F3 transfectant), Alexa Fluor 488 anti-human IgG
Experimental: as §1

human CLDN9 [6] = target: T1, human CLDN9; experiment: flow cytometry, FreeStyle 293-F transfectants expressing human CLDN9, anti-human IgG Alexa Fluor 647; MFI
Experimental: as §2

human CLDN6 (Claudin-6) = target: T7, human CLDN6 (Claudin-6) (human, UniProt P56747 1-220); experiment: flow cytometry, FreeStyle 293-F transfectants expressing human CLDN6, anti-human IgG Alexa Fluor 647; MFI
T7 construct: also called hCLDN6; human Claudin 6
T7 chain: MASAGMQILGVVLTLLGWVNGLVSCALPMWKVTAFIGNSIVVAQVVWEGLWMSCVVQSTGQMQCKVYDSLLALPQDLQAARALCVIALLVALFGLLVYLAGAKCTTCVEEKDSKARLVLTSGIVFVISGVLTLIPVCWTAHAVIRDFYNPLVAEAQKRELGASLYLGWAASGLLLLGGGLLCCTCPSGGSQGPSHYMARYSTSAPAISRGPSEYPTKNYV

mouse CLDN9 = target: T8, mouse CLDN9 (mouse, UniProt Q9Z0S7 1-217); experiment: flow cytometry, FreeStyle 293-F transfectants expressing mouse CLDN9, anti-human IgG Alexa Fluor 647; MFI
T8 construct: also called mCLDN9; mCLDN9/FS293
T8 sequence: T1 sequence with I86V, I124L, A128S, P188S, Q189H, V190F
Experimental: as §2

| Binder | binding result (human CLDN9 [1]) | binding result (human CLDN4 [2]) | binding result (human CLDN3 [3]) | binding result (mouse CLDN4) | binding result (human CLDN4 [4]) | binding result (mouse CLDN6) | binding result (mouse CLDN3) | binding result (human CLDN3 [5]) | binding result (human CLDN9 [6]) | binding result (human CLDN6 (Claudin-6)) | binding result (mouse CLDN9) |
| --- | --- | --- | --- | --- | --- | --- | --- | --- | --- | --- | --- |
| B1 | no binding (tested: 15 micro g/ml) | no binding (tested: 15 micro g/ml) | no binding (tested: 15 micro g/ml) |  |  |  |  |  |  |  |  |
| B2 |  |  |  | no binding (tested: 10 micro g/mL) | no binding (tested: 15 micro g/ml) | no binding (tested: 10 micro g/mL) | no binding (tested: 10 micro g/mL) | no binding (tested: 15 micro g/ml) | no binding (tested: 10 micro g/mL) | no binding (tested: 10 micro g/mL) | no binding (tested: 10 micro g/mL) |
